In patent US20220073613A1 (XILIO DEVELOPMENT, published 2022):

biological target: T1, human CTLA4-Fc (R&D Systems, #7268-CT) (human, UniProt P16410 36-162); assay: low density antigen binding ELISA, human CTLA4-Fc coated; no protease
T1 construct: Bought; not shown: Fc part
T1 sequence (P16410 36-162 limits assumed): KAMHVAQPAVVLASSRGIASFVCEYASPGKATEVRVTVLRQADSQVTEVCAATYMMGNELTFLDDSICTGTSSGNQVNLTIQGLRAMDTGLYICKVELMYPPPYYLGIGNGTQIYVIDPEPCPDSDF

EC50	Binder
3.3 nM	Antibody 2-12 (antibody, human IgG1, kappa) light: ACPFPALELCGSPGSPKPILFFRLSGGEIVLTQSPDFQSVTPKEKVTITCSANSALSYMYWYQQKPDQSPKLWVHGTSNLASGVPSRFSGSGSGTDFTLTINSLEAEDAATYYCHHWSNTQWTFGGGTKVEIKRTVAAPSVFIFPPSDEQLKSGTASVVCLLNNFYPREAKVQWKVDNALQSGNSQESVTEQDSKDSTYSLSSTLTLSKADYEKHKVYACEVTHQGLSSPVTKSFNRGEC heavy: not shown
14.2 nM	Antibody 2-13 (antibody, human IgG1, kappa) light: ACPFPALELCGGSSPPRAAAVKSPSGGEIVLTQSPDFQSVTPKEKVTITCSANSALSYMYWYQQKPDQSPKLWVHGTSNLASGVPSRFSGSGSGTDFTLTINSLEAEDAATYYCHHWSNTQWTFGGGTKVEIKRTVAAPSVFIFPPSDEQLKSGTASVVCLLNNFYPREAKVQWKVDNALQSGNSQESVTEQDSKDSTYSLSSTLTLSKADYEKHKVYACEVTHQGLSSPVTKSFNRGEC heavy: not shown
54.8 nM	Antibody 2-8 (antibody, human IgG1, kappa) light: ACPFPALELCGGPGSSPMPYDLYHPSGGEIVLTQSPDFQSVTPKEKVTITCSANSALSYMYWYQQKPDQSPKLWVHGTSNLASGVPSRFSGSGSGTDFTLTINSLEAEDAATYYCHHWSNTQWTFGGGTKVEIKRTVAAPSVFIFPPSDEQLKSGTASVVCLLNNFYPREAKVQWKVDNALQSGNSQESVTEQDSKDSTYSLSSTLTLSKADYEKHKVYACEVTHQGLSSPVTKSFNRGEC heavy: not shown
48.9 nM	Antibody 2-9 (antibody, human IgG1, kappa) light: ACPFPALELCGGSSPPHEQLTVSGGEIVLTQSPDFQSVTPKEKVTITCSANSALSYMYWYQQKPDQSPKLWVHGTSNLASGVPSRFSGSGSGTDFTLTINSLEAEDAATYYCHHWSNTQWTFGGGTKVEIKRTVAAPSVFIFPPSDEQLKSGTASVVCLLNNFYPREAKVQWKVDNALQSGNSQESVTEQDSKDSTYSLSSTLTLSKADYEKHKVYACEVTHQGLSSPVTKSFNRGEC heavy: not shown
34.9 nM	Antibody 2-11 (antibody, human IgG1, kappa) light: ACPFPALELCSSPSPSGGGGIGQLTASGGEIVLTQSPDFQSVTPKEKVTITCSANSALSYMYWYQQKPDQSPKLWVHGTSNLASGVPSRFSGSGSGTDFTLTINSLEAEDAATYYCHHWSNTQWTFGGGTKVEIKRTVAAPSVFIFPPSDEQLKSGTASVVCLLNNFYPREAKVQWKVDNALQSGNSQESVTEQDSKDSTYSLSSTLTLSKADYEKHKVYACEVTHQGLSSPVTKSFNRGEC heavy: not shown

biological target: T1, human CTLA4-Fc (R&D Systems, #7268-CT); assay: low density antigen binding ELISA, human CTLA4-Fc coated at 1 µg/mL, anti-human kappa-HRP

EC50	Binder
0.32 nM	Antibody 1-1 (antibody, V domains shown, Humanized; wild type Fc region; Variable domains are stated for Antibody 1; full chains are not tied to the label Antibody 1-1; also called version of Antibody 1 having a wild type Fc region) VL: DIVMTQTPLSLSVTPGQPASISCRSSQSLLNSDGNTYLYWYLQKPGQSPQLLIYLVSKLGSGVPNRFSGSGSGTDFTLKISRVEAEDVGVYYCVQGTHDPWTFGGGTKVEIKR VH: QVQLQESGPGLVKPSETLSLTCSVTYHTITSGYDWTWIRKPPGKGMEWIGYISYSGNTNYNPSLKSRVTISRDTSKNQFFLKLSSVTAADTAVYYCASMMVPHYYVMDAWGQGTLVTVSSA
0.44 nM	Antibody 2-1 (antibody, V domains shown, Wild-type Fc region; Variable domains are stated for Antibody 2-6, another version of Antibody 2 that differs in the Fc region only; also called version of Antibody 2 having a wild-type Fc region) VL: EIVLTQSPDFQSVTPKEKVTITCSANSALSYMYWYQQKPDQSPKLWVHGTSNLASGVPSRFSGSGSGTDFTLTINSLEAEDAATYYCHHWSNTQWTFGGGTKVEIKR VH: QVQLVQSGAEVKKPGSSVKVSCKASGYTFTNYFMNWVRQAPGQGLEWMGRVDPEQGRADYAEKFKKRVTITADKSTSTAYMELSSLRSEDTAVYYCARRAMDNYGFAYWGQGTLVTVSSA
0.39 nM	Antibody 2-2 (antibody, V domains shown, Fc region with S239D and I332E; also called version of Antibody 2 having a S239D mutation and an I332E mutation in the Fc region; unmasked Antibody 2-2) VL: EIVLTQSPDFQSVTPKEKVTITCSANSALSYMYWYQQKPDQSPKLWVHGTSNLASGVPSRFSGSGSGTDFTLTINSLEAEDAATYYCHHWSNTQWTFGGGTKVEIKR VH: QVQLVQSGAEVKKPGSSVKVSCKASGYTFTNYFMNWVRQAPGQGLEWMGRVDPEQGRADYAEKFKKRVTITADKSTSTAYMELSSLRSEDTAVYYCARRAMDNYGFAYWGQGTLVTVSSA
0.4 nM	Antibody 2-4 (antibody, V domains shown, Fc with S239D, I332E, A330L; also called version of Antibody 2 having S239D, I332E, and A330L mutations in the Fc region) VL: EIVLTQSPDFQSVTPKEKVTITCSANSALSYMYWYQQKPDQSPKLWVHGTSNLASGVPSRFSGSGSGTDFTLTINSLEAEDAATYYCHHWSNTQWTFGGGTKVEIKR VH: QVQLVQSGAEVKKPGSSVKVSCKASGYTFTNYFMNWVRQAPGQGLEWMGRVDPEQGRADYAEKFKKRVTITADKSTSTAYMELSSLRSEDTAVYYCARRAMDNYGFAYWGQGTLVTVSSA
0.41 nM	Antibody 2-5 (antibody, V domains shown, see m21; also called version of Antibody 2 having S239D, I332E, A330L mutations in the Fc region, and two hinge region mutations) VL: EIVLTQSPDFQSVTPKEKVTITCSANSALSYMYWYQQKPDQSPKLWVHGTSNLASGVPSRFSGSGSGTDFTLTINSLEAEDAATYYCHHWSNTQWTFGGGTKVEIKR VH: QVQLVQSGAEVKKPGSSVKVSCKASGYTFTNYFMNWVRQAPGQGLEWMGRVDPEQGRADYAEKFKKRVTITADKSTSTAYMELSSLRSEDTAVYYCARRAMDNYGFAYWGQGTLVTVSSA
0.4 nM	Antibody 2-3 (antibody, V domains shown, see m21; also called version of Antibody 2 having a S239D mutation, an I332E mutation in the Fc region, and two hinge region mutations) VL: EIVLTQSPDFQSVTPKEKVTITCSANSALSYMYWYQQKPDQSPKLWVHGTSNLASGVPSRFSGSGSGTDFTLTINSLEAEDAATYYCHHWSNTQWTFGGGTKVEIKR VH: QVQLVQSGAEVKKPGSSVKVSCKASGYTFTNYFMNWVRQAPGQGLEWMGRVDPEQGRADYAEKFKKRVTITADKSTSTAYMELSSLRSEDTAVYYCARRAMDNYGFAYWGQGTLVTVSSA
0.32 nM	Antibody 1-2 (antibody, human IgG1, kappa, also called version of Antibody 1 having a S239D mutation and an I332E mutation in the Fc region) light: DIVMTQTPLSLSVTPGQPASISCRSSQSLLNSDGNTYLYWYLQKPGQSPQLLIYLVSKLGSGVPNRFSGSGSGTDFTLKISRVEAEDVGVYYCVQGTHDPWTFGGGTKVEIKRTVAAPSVFIFPPSDEQLKSGTASVVCLLNNFYPREAKVQWKVDNALQSGNSQESVTEQDSKDSTYSLSSTLTLSKADYEKHKVYACEVTHQGLSSPVTKSFNRGEC heavy: not shown

biological target: T1, human CTLA4-Fc (R&D Systems, #7268-CT); assay: low density antigen binding ELISA, human CTLA4-Fc coated; after protease digestion

EC50	Binder
0.67 nM	Antibody 2-8 (Activated) (antibody, not shown: small tags and cut ends) light: EIVLTQSPDFQSVTPKEKVTITCSANSALSYMYWYQQKPDQSPKLWVHGTSNLASGVPSRFSGSGSGTDFTLTINSLEAEDAATYYCHHWSNTQWTFGGGTKVEIKRTVAAPSVFIFPPSDEQLKSGTASVVCLLNNFYPREAKVQWKVDNALQSGNSQESVTEQDSKDSTYSLSSTLTLSKADYEKHKVYACEVTHQGLSSPVTKSFNRGEC heavy: not shown
0.67 nM	Antibody 2-9 (Activated) (antibody, not shown: remnant of the cleaved linker (part of HEQLTV and spacer SGG)) light: EIVLTQSPDFQSVTPKEKVTITCSANSALSYMYWYQQKPDQSPKLWVHGTSNLASGVPSRFSGSGSGTDFTLTINSLEAEDAATYYCHHWSNTQWTFGGGTKVEIKRTVAAPSVFIFPPSDEQLKSGTASVVCLLNNFYPREAKVQWKVDNALQSGNSQESVTEQDSKDSTYSLSSTLTLSKADYEKHKVYACEVTHQGLSSPVTKSFNRGEC heavy: not shown
0.62 nM	Antibody 2-12 (Activated) (antibody, not shown: small tags and cut ends) light: EIVLTQSPDFQSVTPKEKVTITCSANSALSYMYWYQQKPDQSPKLWVHGTSNLASGVPSRFSGSGSGTDFTLTINSLEAEDAATYYCHHWSNTQWTFGGGTKVEIKRTVAAPSVFIFPPSDEQLKSGTASVVCLLNNFYPREAKVQWKVDNALQSGNSQESVTEQDSKDSTYSLSSTLTLSKADYEKHKVYACEVTHQGLSSPVTKSFNRGEC heavy: not shown
0.62 nM	Antibody 2-11 (Activated) (antibody, not shown: small tags and cut ends) light: EIVLTQSPDFQSVTPKEKVTITCSANSALSYMYWYQQKPDQSPKLWVHGTSNLASGVPSRFSGSGSGTDFTLTINSLEAEDAATYYCHHWSNTQWTFGGGTKVEIKRTVAAPSVFIFPPSDEQLKSGTASVVCLLNNFYPREAKVQWKVDNALQSGNSQESVTEQDSKDSTYSLSSTLTLSKADYEKHKVYACEVTHQGLSSPVTKSFNRGEC heavy: not shown
